From the nanobody polyreactivity screen of Harvey et al. (2022) come the findings set out here.

This series can be described thus: yeast display, Sf9 membrane polyspecificity reagent, FACS + sequencing; frameworks hold sequencing errors. The gist of the method: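 A nanobody's polyreactivity label depends on the gate it was sorted from. Yeast display cells were stained with 10% biotinylated, detergent-solubilized Sf9 membrane reagent for 1 hour at 4 °C, enriched on streptavidin microbeads and sorted by FACS. The low and high (top ~1%) gates were set on anti-HA fluorescence for expression and streptavidin fluorescence for reagent binding.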
Regarding “QVQLVESGGGLVQAGGSLRLSCAASGITFDYYAMGWYRQAPGKERELVADISSSGGSTYYADSVKGRFTISRDNAKNSVYLQMNSLKPEDTAVYYCAAVVTKYPTTGFGYWGQGTQVTVSS”, the “polyreactivity (PSR sort gate)” value is given as “high polyreactivity”.
In the case of “QVQLVESGGGLVQAGGSLRLSCAASGITFDYYAMGWYRQAPGKERELVASISSDSSTYYADSVKGRFTISRDNAKNTVYLQMNSLKPEDTAVYYCNAGDTTFPFYYWGQGTQVTVSS”, the “polyreactivity (PSR sort gate)” value is listed as “low polyreactivity”.
The entry for “QVQLVESGGGLVQAGGSLRLSCAASGITFEDYAMGWYRQAPGKERELVAAISWSGDITYYADSVKGRFTISRDNAKNTVYLQMNSLKPEDTAVYYCAADLSPYGYDYWGQGTQVTVSS” is “low polyreactivity”; for “QVQLVESGGGLVQAGGSLRLSCAASGITFELNTMGWYRQAPGKEMELVAVITQNGGSTYYADSVKGRFTISRDNAKNTVYLQMNSLKPEDTAVYYCAATYVWSYLYLIRFYYWGQGTQVTVSS” it is “high polyreactivity”.
Under “QVQLVESGGGLVQAGGSLRLSCAASGITFETYAMGWYRQAPGKERELVAAITYSGGRTYYADSVKGRFTISRDNAKNTVYLQMNSLKPEDTAVYYCNARKYVGFWSRYDYWGQGTQVTVSS” stands “high polyreactivity”.
“QVQLVESGGGLVQAGGSLRLSCAASGITFEVNAMGWYRQAPGKERELVAAISRSAGSTYYADSVKGRFTISRDNAKNTVYLQMISLKPEDTAVYYCATALRYARSRNRFYYWGQGTQVSVSS”: the “polyreactivity (PSR sort gate)” value is listed as “high polyreactivity”.
Under “QVQLVESGGGLVQAGGSLRLSCAASGITFEVYAMAWYRQAPATERELVAVITSVGSTNYADSVKGRFTISRDNAKNTVYLQMNSLKTEDNAVYYCAGEKWTVRRFNPYTYYRYDYWGQGTQVTVSS” stands “low polyreactivity”.
The entry for “QVQLVESGGGLVQAGGSLRLSCAASGITFEVYDMGWYRQAPGKERELVAAITWSAGRTYYADSVKGRFTISRDNAKNTVYLQMNSLKPEDTAVYYCAAEVYYYYRTYSYIWNRVDYDYWGQGTQVTVSS” is “low polyreactivity”; for “QVQLVESGGGLVQAGGSLRLSCAASGITFEYYAMGWYRQAPGKERELVAAITWSGGITYYADSVKGRFTISRDNAKNTVYLQMNSLKPEDTAVYYCNVYVSAGEEDEYWGQGTQVTVSS” it is “low polyreactivity”; for “QVQLVESGGGLVQAGGSLRLSCAASGITFFGKYAMGWYRQAPGKERELVAAISWSGGRTYYADSVKGRFTISRDNAKNTVYLQMNSLKPEDTAVYYCAVYPRDAERYGYWGQGTQVTVSS” it is “high polyreactivity”.
Under “QVQLVESGGGLVQAGGSLRLSCAASGITFFGYAMGWYRQAPGKERELVAAISYSGGSTYYADSVKGRFTISRDNAKNTVYLQMNSLKPEDTAVYYCNARQAGTRYKYGYYGRYYWGQGTQVTVSS” stands “high polyreactivity”; under “QVQLVESGGGLVQAGGSLRLSCAASGITFFLYAMGWYRQAPGKERELVAVISASGGSTYYADSVKGRFTISRDNAKNTVYLQMNSLKPDDTAVYYCNAYGAFIGYDSWGQGTQVTVSS”, “high polyreactivity”; under “QVQLVESGGGLVQAGGSLRLSCAASGITFFRNAMGWYRQAPGKERELVAAISRGGGSTYYADSVKGRFTISRDNAKNTVYLQMNSLKPEDTAVYYCAEYKYGTGVKMDYWGQGTQVTVSS”, “high polyreactivity”.
As to “QVQLVESGGGLVQAGGSLRLSCAASGITFFRYAMGWYRQAPGKEREFVAAISGRGGSTYYADSVKGRFTISRDNAKNTVYLQMNSLKPEDTAVYYCATRRSYLADYWGQGTQVTVSS”, the “polyreactivity (PSR sort gate)” value was “high polyreactivity”.
As for “QVQLVESGGGLVQAGGSLRLSCAASGITFFTYGLGWYRQAPGKERELVASINWSGGTYYADSVKGRFTISRDKAKNTVYLQMNSLKPEDTAVYYCAAETHVESGSRDFYTEDYWGQGTQVTVSS”, the “polyreactivity (PSR sort gate)” value is reported as “low polyreactivity”.
Under “QVQLVESGGGLVQAGGSLRLSCAASGITFFWNAMGWYRQAPGKERELVAAISSGAGTTYADSVKGRFTISRDNAKNTVYLQMNSLKPEDTAVYYCAARRYRYAYGPYNYWGQGTQVTVSS” stands “low polyreactivity”.
The entry for “QVQLVESGGGLVQAGGSLRLSCAASGITFGAYAMGWYRQAPGKERELVASISSSGSTYADSVKGRFTISRDNAKNTVYLQMNSLKPEDTGVYYCNAVGFQANDYNYWGQGTQVTVSS” is “low polyreactivity”; for “QVQLVESGGGLVQAGGSLRLSCAASGITFGDNTMGWYRQAPGKERELVAAITYSSTSTYYADSVKGRFTISRDNPKNTVYLQMNSLKPEDTAVYYCAAEGPVDVVSTDYDYWGQGTQVTVSS” it is “low polyreactivity”; for “QVQLVESGGGLVQAGGSLRLSCAASGITFGDYAMGWNRQAPGKERELVAGINWSGDGTYYADSVKGRFTISRDNAKITVYLQMYSLKPEDTAVYYCAAETFYDYGGYDYWGQVTQVTVSS” it is “low polyreactivity”.
The entry for “QVQLVESGGGLVQAGGSLRLSCAASGITFGDYTMGWYRQAPGKERELVAGINWSGDGTYYADSVKGRFTISRDNAKNTVYLQMNSLKPEDTAVYYCAAETFYDYGGYDYWGQGTQVTVSS” is “low polyreactivity”; for “QVQLVESGGGLVQAGGSLRLSCAASGITFGNYAMGWYRQAPGKERELVAAISQSSGRTYYADSVKGRFTISRDNAKNTVYLQMNSLKPEDTAVYYCAARTRGSSRGDYDYWGQGTQVTVSS” it is “high polyreactivity”; for “QVQLVESGGGLVQAGGSLRLSCAASGITFGPNAMGWYRQAPGKERELVAAISWRGGSTYYADSVKGRFTISRDYAKNTVYLQMNSLKPEDTAVYYCAKVQIPASYIRYDYWGQGTQVTVSS” it is “low polyreactivity”.
With “QVQLVESGGGLVQAGGSLRLSCAASGITFGPYAMGWYRQAPGKERELVAAISSGGRTNYADSVKGRFTISRDNAKNTVYLQMNSLKPEDTAVYYCAARFAYFREYGTYYYWGQGTQVTVSS”, the “polyreactivity (PSR sort gate)” value is reported as “high polyreactivity”.
Under “QVQLVESGGGLVQAGGSLRLSCAASGITFGRDAMGWYRQARGKERELVAAISRGSGSTYSADSVKGRFTISRDNAKNTVYLQMHSLKPEDTAVYYCGKVVRVGMGYWGQGTQVTVSS” stands “high polyreactivity”; under “QVQLVESGGGLVQAGGSLRLSCAASGITFGRNTMGWSRQAPGKERELVAAIDSGGNTYADSVKGRFTISRDNAKNTVYLQMNSLKPEDTAVYYCAVDGGEFSSYGYWGQGTQVTVSS”, “low polyreactivity”; under “QVQLVESGGGLVQAGGSLRLSCAASGITFGRNTMGWYRQAPGKERELVAAIDSGGNTYADSVKGRFTISRDNAKNTVYLQMNSLKPEDTAVYYCATVADEPRAYSGYEESDYWGQGTQVTVSS”, “low polyreactivity”.
Under “QVQLVESGGGLVQAGGSLRLSCAASGITFGRNTMGWYRQAPGKERELVAAIDSGGNTYADSVKGRFTISRDNAKNTVYLQMNSLKPEDTAVYYCDVDGGEFSSYGYWGQGTLVTVSS” stands “low polyreactivity”; under “QVQLVESGGGLVQAGGSLRLSCAASGITFGRYAMGSYRQPPGKEREFVAAISWSGGSTYYADSVKGRFTISLDNATNPVYLQINSLKPEDTAVYYCAVEWYYTSYHIRVYRDNYWGQGTQVTVSS”, “high polyreactivity”; under “QVQLVESGGGLVQAGGSLRLSCAASGITFGRYAMGWYRQAPGKERELVAAISRGSGSTYYADSVKGRFTISRDNAKNTVYLQMNSLKPEDTAVYYCAKVVRVGMGYWGQGTQVTVSS”, “high polyreactivity”.
Regarding “QVQLVESGGGLVQAGGSLRLSCAASGITFGTYAMGWYRQAPGKERELVAAISQSSGRTYYADSVKGRFTISRDNAKNSVYLQMNSLKPEDTAVYYCADRTRGSSRGDYDYWGQGTQVTVSS”, the “polyreactivity (PSR sort gate)” value was “high polyreactivity”.
The entry for “QVQLVESGGGLVQAGGSLRLSCAASGITFGVNTMGWYRQAPGKERELVAAITWRGGSTYYADSVKGRFTISRDNAQNTVYLQMNSLIPEDTAVYYCAAQPIWPGGQELDYWGQGTQVTVSS” is “low polyreactivity”; for “QVQLVESGGGLVQAGGSLRLSCAASGITFGYYAMGWSRQAPGKERELVAAISWSGGRTYYADSVKGRFTMSRDNAKNTVYLQMNSLKPEDTAVYYCAADYWYYRGGYPMDYWGQGTQVTVSS” it is “high polyreactivity”; for “QVQLVESGGGLVQAGGSLRLSCAASGITFGYYTMGWYRQAPGKEREFDAAISSTGGTYYADSVKGRFTISRDNAQNTVYLQMNSLKPEDTAVYYCAATFIQVVVNVQLYDYDYWGQGTQVTVSS” it is “low polyreactivity”.
Under “QVQLVESGGGLVQAGGSLRLSCAASGITFHANAMGWNRQARGKERELVPAINWSGGSTYYADSVKGRFTISRDNAKNTVYLQMNSLKPEDTAVYYCAAELWGLFDYWGQGTQVTVSS” stands “low polyreactivity”; under “QVQLVESGGGLVQAGGSLRLSCAASGITFHSYAMGWYRQAPGKERELVAGISSGGSTNYADSVKGRFTISRDNAKNTVYLQMNSLKPEDTAVYYCAVLNHRVDSVLTRYYYWGQGTQVTVSS”, “low polyreactivity”.
Under “QVQLVESGGGLVQAGGSLRLSCAASGITFILYDMGWYRQAPGKERELVAGITSGDGDSTYYADSVKGRFTISRDNAKNTVYLQMNSLKPEDTAVYYCAADFTVGYYREYYYWGQGTQVTVSS” stands “low polyreactivity”; under “QVQLVESGGGLVQAGGSLRLSCAASGITFIRYAMGWYRQAPGKERELVAAISKDGDSTYYADSVKGRFTISRDNAKNTVYLQMNSLKPEDSGVYYCAAQRYSKALYNYWGQGTQVTVSS”, “high polyreactivity”; under “QVQLVESGGGLVQAGGSLRLSCAASGITFIRYAMGWYTQAPGKERELVAAIDRSGGSTYYADSVKGRFTISRDTAKNTVYLQMNSLKPEDTAVYYCAARRVRGLDYWGQGTQVTVSS”, “high polyreactivity”.
For the sequence “QVQLVESGGGLVQAGGSLRLSCAASGITFKAYAMGWYRQAPGKERELVAAITGSGGRTYYADSVKGRFTISRDNAKNTVYLQMNSLKPEDTAVYYCAKTSSWYLRPKYYYWGQGTQVTVSS”, the “polyreactivity (PSR sort gate)” value is on record as “high polyreactivity”.
The entry for “QVQLVESGGGLVQAGGSLRLSCAASGITFKFYAMGWYRQAPGKERELVAVITSGGSTYYADSVKGRFTISRDNAKNTVYLQMTSLKPEDTAVFYCASGGNGLYRAYPFYYWGQGTQVTVSS” is “high polyreactivity”; for “QVQLVESGGGLVQAGGSLRLSCAASGITFKGYTMGWYRQAPGKERELVATISRGGRTYAVSVKGRFTISRDNAKNTVYLQMNSLKPEDTAVYYCAADKYWAQNDYWGQGTQVTVSS” it is “low polyreactivity”.
